Results: paper PMC3471927, “The PduQ Enzyme Is an Alcohol Dehydrogenase Used to Recycle NAD^+ Internally within the Pdu Microcompartment of Salmonella enterica” (PLoS ONE, 2012)

B1: PduQ-His6 (Salmonella enterica subsp. enterica serovar Typhimurium str. LT2) (protein)
chain: MNTFSLQTRLYSGQGSLAVLKRFTNKHIWIICDGFLAHSPLLDTLRNALPADNRISVFSEITPDPTIHTVVQGIAQMQALQPQVVIGFGGGSAMDAAKAIVWFSQQSGINIETCVAIPTTSGTGSEVTSACVISDPDKGIKYPLFNNALYPDMAILDPELVVSVPPQITANTGMDVLTHALEAWVSPRASDFTDALAEKAAKLVFQYLPTAVEKGDCVATRGKMHNASTLAGMAFSQAGLGLNHAIAHQLGGQFHLPHGLANALLLTTVIRFNAGVPRAAKRYARLAKACGFCPAEANDIAAINALIQQIELLKQRCVLPSLAVALKEGRSDFSARIPAMVQAALADVTLRTNPRPANAEAIRELLEELL
notes: full length, C-terminal His6 kept, pET-41a in E. coli BL21(DE3) RIL, anaerobic Ni-NTA

Experiments:
[1] = target: T1, PduP (Salmonella enterica, UniProt Q9XDN1); assay: thioester formation at […] nm in purified Pdu MCPs; format: biochemical; conditions: 10 mM propionaldehyde, 200 mM 1,2-propanediol, 40 µM NAD+, 100 µM HS-CoA, 100 mM sodium phosphate pH 7.0
T1 construct: native PduP within anaerobically purified Pdu microcompartments (wild-type and pduQ deletion strain BE903)
T1 sequence (Q9XDN1 whole entry): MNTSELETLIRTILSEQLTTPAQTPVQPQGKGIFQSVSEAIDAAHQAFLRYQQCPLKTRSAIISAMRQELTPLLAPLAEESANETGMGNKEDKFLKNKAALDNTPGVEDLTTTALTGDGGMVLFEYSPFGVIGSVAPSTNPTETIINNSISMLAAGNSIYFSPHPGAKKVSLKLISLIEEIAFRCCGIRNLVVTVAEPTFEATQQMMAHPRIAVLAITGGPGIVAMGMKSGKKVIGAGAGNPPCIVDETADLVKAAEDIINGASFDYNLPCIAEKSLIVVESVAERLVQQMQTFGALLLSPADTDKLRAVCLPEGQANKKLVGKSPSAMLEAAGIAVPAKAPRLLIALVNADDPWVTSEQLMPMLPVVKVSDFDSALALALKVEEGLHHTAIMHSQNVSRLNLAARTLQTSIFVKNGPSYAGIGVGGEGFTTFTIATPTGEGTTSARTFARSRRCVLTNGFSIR

[2] = substrate: CCC=O; assay: purified protein; format: biochemical, Salmonella enterica; conditions: 0.4 mM NADH, 100 mM sodium phosphate pH 7.0, anaerobic; pH 7.0
[3] = substrate: NC(=O)c1ccc[n+]([C@@H]2O[C@H](COP(=O)(O)OP(=O)(O)OC[C@H]3O[C@@H](n4cnc5c(N)ncnc54)[C@H](O)[C@@H]3O)[C@@H](O)[C@H]2O)c1; assay: purified protein; format: biochemical, Salmonella enterica; conditions: 800 mM 1-propanol, 100 mM Tris-HCl pH 9.0, anaerobic; pH 9.0
[4] = substrate: NC(=O)C1=CN([C@@H]2O[C@H](COP(=O)(O)OP(=O)(O)OC[C@H]3O[C@@H](n4cnc5c(N)ncnc54)[C@H](O)[C@@H]3O)[C@@H](O)[C@H]2O)C=CC1; assay: purified protein; format: biochemical, Salmonella enterica; conditions: 150 mM propionaldehyde, 100 mM sodium phosphate pH 7.0, anaerobic; pH 7.0
[5] = substrate: CCCO; assay: purified protein; format: biochemical, Salmonella enterica; conditions: 2 mM NAD+, 100 mM Tris-HCl pH 9.0, anaerobic; pH 9.0

Row | Molecule | thioester formation at 232 nm in purified Pdu MCPs [1] | Km [2] | Vmax [2] [µmol/min/mg] | kcat [2] [s⁻¹] | kcat/Km [2] [M⁻¹ s⁻¹] | Km [3] [µM] | Vmax [3] [µmol/min/mg] | kcat [3] [s⁻¹] | kcat/Km [3] [M⁻¹ s⁻¹] | Km [4] [µM] | Vmax [4] [µmol/min/mg] | kcat [4] [s⁻¹] | kcat/Km [4] [M⁻¹ s⁻¹] | Km [5] | Vmax [5] [µmol/min/mg] | kcat [5] [s⁻¹] | kcat/Km [5] [M⁻¹ s⁻¹]
1 | CCC=O [propionaldehyde] | no measureable PduP activity without added HS-CoA, NAD^+ or propionaldehyde |  |  |  |  |  |  |  |  |  |  |  |  |  |  |  | 
2 | NC(=O)c1ccc[n+]([C@@H]2O[C@H](COP(=O)(O)OP(=O)(O)OC[C@H]3O[C@@H](n4cnc5c(N)ncnc54)[C@H](O)[C@@H]3O)[C@@H](O)[C@H]2O)c1 [NAD^+] | no measureable PduP activity without added HS-CoA, NAD^+ or propionaldehyde |  |  |  |  |  |  |  |  |  |  |  |  |  |  |  | 
3 | B1 |  | (16.0±2.0)×10^3 µM | 81.3 | 54.6 | 3410 | 267.5 ± 22.3 | 9.2 | 6.18 | 23100 | 45.3 ± 5.3 | 77.7 | 52.2 | 1.15e+06 | (95.8±9.2)×10^3 µM | 8.4 | 5.64 | 58.9
